Assay results as given in paper doi:10.1101/2025.08.01.667454.

Molecular target: PU.1[60–100]^TMR (human) (UniProt P17947)
Experiment: fluorescence polarisation

Kd: > 50 µM
Substance: BAF60A^SWIB (domain or fragment)
